In patent US20170253933A1, “COMPOSITIONS AND METHODS FOR TREATING AND DIAGNOSING CHEMOTHERAPY-RESISTANT CANCERS” (Genentech, Inc., priority 2014, published 2017):
Entries after “also recorded” stand apart in the source; their conditions may differ.

System: ES-2 cells
Assay: Chemotherapy resistance of ES-2 cells on protein-coated plates (Cell-Titre Glo viability, % growth benefit)
Assay type: cell-based
Excerpt: (A) Increased desmoplasia is correlated with POSTN expression and primary chemotherapy-resistance. Representative high magnification images of hematoxylin and eosin (H&E) staining of tumor specimens (upper panels) and POSTN ISH images (lower panel) are shown. Desmoplasia scores were defined as follows: 0=no desmoplasia, 1=few scattered desmoplastic foci abutting cancer cells, 2=several desmoplastic foci abutting cancer cells or moderate confluent (wider) desmoplasia, but not present throughout the section, 3=desmoplastic reaction throughout section, associated with most cancer cells. Labels: DS=desmoplastic stroma, NS=normal stroma, TC =tumor cells. Arrows point to examples of tumor cells. A dotted line encircles a region containing tumor cells. Size bars, 100 μm. (B) Summary of desmoplasia scores in 21 Plat-S primary, 18 Plat-R primary, and 21 Plat-R recurrent tumor specimens; (C) POSTN promotes chemotherapy-resistance in chemotherapy-sensitive ES2 ovarian cells in vitro. 96-well plates were coated with recombinant protein FN1 or POSTN or left uncoated before cells were plated into each well. 10 μM carboplatin or 10 nM taxol was then added to each well on the next day. Cell-Titre Glo® reagents were added at 72 hours after compound treatment to measure cell viability. The viability in coated wells was then compared with viability in uncoated wells to calculate % growth benefit. […]

B1: POSTN: recombinant full-length POSTN (Cat #3548-F2, R&D Systems) used to coat culture plates (protein, UniProt Q15063 22-836, looked up)
Periostin: NNHYDKILAHSRIRGRDQGPNVCALQQILGTKKKYFSTCKNWYKKSICGQKTTVLYECCPGYMRMEGMKGCPAVLPIDHVYGTLGIVGATTTQRYSDASKLREEIEGKGSFTYFAPSNEAWDNLDSDIRRGLESNVNVELLNALHSHMINKRMLTKDLKNGMIIPSMYNNLGLFINHYPNGVVTVNCARIIHGNQIATNGVVHVIDRVLTQIGTSIQDFIEAEDDLSSFRAAAITSDILEALGRDGHFTLFAPTNEAFEKLPRGVLERIMGDKVASEALMKYHILNTLQCSESIMGGAVFETLEGNTIEIGCDGDSITVNGIKMVNKKDIVTNNGVIHLIDQVLIPDSAKQVIELAGKQQTTFTDLVAQLGLASALRPDGEYTLLAPVNNAFSDDTLSMDQRLLKLILQNHILKVKVGLNELYNGQILETIGGKQLRVFVYRTAVCIENSCMEKGSKQGRNGAIHIFREIIKPAEKSLHEKLKQDKRFSTFLSLLEAADLKELLTQPGDWTLFVPTNDAFKGMTSEEKEILIRDKNALQNIILYHLTPGVFIGKGFEPGVTNILKTTQGSKIFLKEVNDTLLVNELKSKESDIMTTNGVIHVVDKLLYPADTPVGNDQLLEILNKLIKYIQIKFVRGSTFKEIPVTVYTTKIITKVVEPKIKVIEGSLQPIIKTEGPTLTKVKIEGEPEFRLIKEGETITEVIHGEPIIKKYTKIIDGVPVEITEKETREERIITGPEIKYTRISTGGGETEETLKKLLQEEVTKVTKFIEGGDGHLFEDEEIKRLLQGDTPVRKLQANKKVQGSRRRLREGRSQ
- cell growth with coating alone (ES-2 cells on coated plates, in the absence of chemotherapy treatment): small increase in cell growth
- resistance to carboplatin or paclitaxel treatment (viability in coated wells vs uncoated wells, % growth benefit) (ES-2 ovarian cancer cells on coated plates, 10 μM carboplatin or 10 nM paclitaxel, viability at 72 hours): became resistant to carboplatin and paclitaxel treatment; also recorded: significantly more resistant to carboplatin or paclitaxel treatment
